In US20220001000A1 (Regeneron, published 2022):

Experiments:
[1] = target: monomeric HLA-A2:HPV16E7(11-19) peptide complex, soluble (human; human papillomavirus type 16); assay: SPR 25C, mAb captured
[2] = target: T1, HLA-A2/HPV16E7:11-19 on peptide-pulsed T2 cells (human; human papillomavirus type 16); assay: MSD cell binding, T2
Method: To determine anti-HLA-A2/HPV16E7 monoclonal antibody specificity, peptide-pulsed T2 cells loaded with target or off-target peptides (identified in the previous Example) were used. […] Approximately 6 million T2 cells per T-75 flask were cultured for 24 hours at 26° C. in 9 mL of AIM V® Medium containing 10 μg of human b2m and 100 μg of HPV16E7 peptide or off-target peptide (Tables 6 and 7). Peptide-loaded T2 cells were washed once with PBS without Ca2+/Mg2+ and counted. Approximately 10,000 cells per well of the peptide-loaded T2 or untreated T2 in cell washing buffer were seeded into the 96-well carbon electrode plates (MULTI-ARRAY high bind plate, MSD) and incubated for 1 hour at 37° C. to allow cells to adhere to the plate. Nonspecific binding sites were blocked using 2% BSA (w/v) in PBS for 1 hour at room temperature. […] Plates were incubated for 1 hour at room temperature, then washed to remove the unbound antibody using an AquaMax2000 plate washer (MDS Analytical Technologies). Plate-bound antibodies were detected with SULFO-TAG™-conjugated goat polyclonal anti-human IgG antibody specific for the Fc gamma fragment (Jackson Immunoresearch, Meso Scale Discovery) for 1 hour at room temperature. After washes, the plates were developed with the Read Buffer (MSD) according to manufacturer's recommended procedure, and the luminescent signals were recorded with a SECTOR Imager 600 (Meso Scale Discovery) instrument. The luminescence intensity, measured in relative light units (RLU), was recorded to indicate the binding intensity of each antibody at the range of concentrations.

[3] = target: HLA-A2 with HPV16E7:11-19 alanine scanning peptide […] (L15A) on pulsed T2 cells (human; human papillomavirus type 16); assay: FACS, T2, Ala scan
Method: (§1) Alanine scanning was performed to determine which residues in the HPV16E7:11-19 peptide were critical for antibody binding. T2 cells were pulsed with alanine scanning peptides and stained with HPV16E7:11-19 antibodies as described above.

[4] = target: HLA-A2 with HPV16E7:11-19 alanine scanning peptide […] (L13A) on pulsed T2 cells (human; human papillomavirus type 16); assay: FACS, T2, Ala scan
Method: as §1

[5] = target: HLA-A2 with off-target peptide PPP4R4:20-28 on pulsed T2 cells (human); assay: FACS, T2, 10 ug/ml;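 further: Peptide-pulsed T2 cells held overnight at 26 °C, then stained with antibodies at 10 µg/ml, WI values reported as fold change versus unstained cells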
Method: (§2) T2 cells were then incubated overnight at 26° C., washed in staining buffer and stained with the indicated antibodies at a concentration of 10 μg/ml following the protocol described above. WI values were calculated and presented as fold change over unstained cells.

[6] = target: HLA-A2 with off-target peptide USP47:691-699 on pulsed T2 cells (human); assay: FACS, T2, 10 ug/ml;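 further: Peptide-pulsed T2 cells held overnight at 26 °C, then stained with antibodies at 10 µg/ml, WI values reported as fold change versus unstained cells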
Method: as §2

[7] = target: HLA-A2 with off-target peptide CAMKK1:388-396 on pulsed T2 cells (human); assay: FACS, T2, 10 ug/ml;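 further: Peptide-pulsed T2 cells held overnight at 26 °C, then stained with antibodies at 10 µg/ml, WI values reported as fold change versus unstained cells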
Method: as §2

[8] = target: HLA-A2 with off-target peptide NBR1:357-365 on pulsed T2 cells (human); assay: FACS, T2, 10 ug/ml;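 further: Peptide-pulsed T2 cells held overnight at 26 °C, then stained with antibodies at 10 µg/ml, WI values reported as fold change versus unstained cells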
Method: as §2

[9] = target: T1, HLA-A2/HPV16E7:11-19 on peptide-pulsed …; assay: FACS, T2, 10 ug/ml
Method: as §2

[10] = target: HLA-A2 with off-target peptide PKD1:2694-2702 on pulsed T2 cells (human); assay: FACS, T2, 10 ug/ml
Method: as §2

[11] = target: T2, HLA-A2 with off-target peptide SH3GLB1:244-252 on pulsed T2 cells (human); assay: FACS, T2, 10 ug/ml
T2 construct: also called Endophilin-B1
Method: as §2

[12] = target: T3, HLA-A2 with off-target peptide CHPF:463:471 on pulsed T2 cells (human); assay: FACS, T2, 10 ug/ml
T3 construct: also called Chondroitin sulfate synthase 2
Method: as §2

[13] = target: HLA-A2 with off-target peptide SBK3:285-293 on pulsed T2 cells (human); assay: FACS, T2, 10 ug/ml
Method: as §2

[14] = target: T4, HLA-A2 with off-target peptide CBL:83-91 on pulsed T2 cells (human); assay: FACS, T2, 10 ug/ml
T4 construct: also called E3 ubiquitin-protein ligase CBL
Method: as §2

| Binder | Kd [1] [nM] | t½ [1] [min] | EC50 [2] [nM] | koff [1] [s⁻¹] | kon [1] [M⁻¹ s⁻¹] | FACS binding (fold over unstained) [3] [fold] | FACS binding (fold over unstained) [4] [fold] | Fold change over unstained [5] [fold] | Fold change over unstained [6] [fold] | Fold change over unstained [7] [fold] | Fold change over unstained [8] [fold] | Fold change over unstained [9] [fold] | Fold change over unstained [10] [fold] | Fold change over unstained [11] [fold] | Fold change over unstained [12] [fold] | Fold change over unstained [13] [fold] | Fold change over unstained [14] [fold] |
| --- | --- | --- | --- | --- | --- | --- | --- | --- | --- | --- | --- | --- | --- | --- | --- | --- | --- |
| H4sH21064P (antibody, V domains shown) VH: EVQLVESGGGLVQPGGSLRLSCAASGFTFTFYAMHWVRQAPGKGLEYVSGISSNGGSTKYADSVKGRFTISRDNSKNTLYLQMGSLRAEDLAVYYCARSYASSSDYHYYYGMDVWGQGTTVTVSS VL: not shown | 14.4 | 14.6 | – | – | – | – | – | – | – | – | – | – | – | – | – | – | – |
| H4sH21080P (antibody, V domains shown) VH: EVQLVESGGGLVQPGGSLRLSCAASGFTFSSYAMSWVRQAPGKGLEWVSGISGSGGTTYDADSVKGRFTISRDNSKNTLYLQMHSLRAEDTAAYYCAKDWNYGPYYYFGMDVWGQGTTVTVSS VL: not shown | 218 | 0.3 | 0.22 | 0.039 | 179000 | – | – | – | – | – | – | – | – | – | – | – | – |
| H4sH17675P (antibody, V domains shown) VH: EVQLVESGGGLVQPGASLRLSCEASGFTLSFYAMHWVRQAPGKELEYVSGISGNGNSIYYRDSVKGRFTISRDNSKNTLYLQMGSVGAEDMAVYYCARSYSSGNSYYYYYGMDVWGQGTTVTVSS VL: DIQMTQSPSSLSASVGDRITITCRASQSISSYLNWYQQKPGKAPNLLIYAASNLQSGVPSRFSGSGSGTDFTLTISSLQPEDFATYYCQQSYSTPPITFGQGTRLEIKR | 23.1 | 8.4 | 1.1 | 0.00138 | 59900 | 1150 | 527 | 5.5 | 13.3 | 2.4 | 2.2 | 1200 | 2.9 | 10.5 | 5 | 2.9 | 4.9 |
| H4sH17363N (antibody, V domains shown) VH: EVQLLESGGGLVQPGGSLRLSCAASGFTFSSYAMTWVRQAPGMGLEWVSVISGSGSETYYADSVKGRFTISRDNSKNTLYLQMNSLRAEDTAVYYCVKDSSYRSSSRAYYYYGMDVWGLGTTVTVSS VL: DIQMTQSPSSLSASVGDRVTITCRASQSISSYLNWYQQKPGKAPKLLIYAVSILQSGVPSRFSGSGSGTDFTLTINSLQPEDFATYSCQQTYSTPPITFGQGTRLEIKR | 17.6 | 7.5 | 2.1 | 0.00154 | 87200 | 1020 | 530 | 6.1 | 0.6 | 2 | 3.6 | 1000 | 1.2 | 13.6 | 7.4 | 0.4 | 19.5 |
| H4sH17672P (antibody, V domains shown) VH: EVQLVESGGGLVQPGASLRLSCEASGFTLSFYSMHWVRQAPGRELEYVSGISGNGNNIYYRDSVKGRFTISRDNSKNTLNLQMGSVRAEDMGVYYCARSYSSGNSYNYYYGMDVWGQGTTVTVSS VL: DIQMTQSPSSLSASVGDRVTITCRASQTISSYLNWYQQKPGKAPKLLIYAVSNLQSGVPSRFSGSGSGTDFTLTISSLQPEDFATYYCQQSYSTPPITFGQGTRLEIK | 6.37 | 14.1 | 0.45 | 0.000819 | 129000 | – | – | – | – | – | – | – | – | – | – | – | – |
| H4sH17364N (antibody, V domains shown) VH: EVQLLESGGGLVQPGGSLRLSCAASGFTFSSYAMTWVRQAPGKGLEWVSVISGSGSETYYADSVKGRFTISRDNSKNTLYLQMNSLRAEDTAVYYCVKDSSYRSSSRAYYYYGMDVWGLGTTVTVSS VL: DIQMTQSPSSLSASVGDRVTITCRASQSISSYLNWYQQKPGKAPKLLIYAVSILQSGVPSRFSGSGSGTDFTLTISSLQPEDFATYSCQQTYSTPPITFGQGTRLEIKR | 18.3 | 7.4 | 2 | 0.00157 | 85600 | 1010 | 490 | 9 | 1.3 | 1 | 3 | 986 | 1 | 15.2 | 10.9 | 0.8 | 23.9 |
| H4sH17670P (antibody, V domains shown) VH: EVQLVESGGDLVQPGTSLRLSCEASGFTLSFYAMYWVRQAPGKELELVSGISGNGESMFYGNSVKGRFSISRDNSKNTLYLQMGSVRAEDMAVYYCARAYASGNSYFFYYGMDVWGQGTTVTVSS VL: not shown | 17.5 | – | 1.3 | – | – | – | – | – | – | – | – | – | – | – | – | – | – |
| H4sH17930N (antibody, V domains shown) VH: EVQLVESGGGLVQPGGSLRLSCAASGFTFSYYALHWVRQAPGKGLEYVSAISGNGGSTYYADSVKGRFTISRDKSMSTVYLQVGSLRAEDMAVYYCARSYASSSDYHYYYGMDVWGQGTTVTVSS VL: not shown | 10.2 | 14.5 | 3.1 | – | – | – | – | – | – | – | – | – | – | – | – | – | – |
| H4sH17930N2 (antibody, V domains shown) VH: EVQLVESGGGLVQPGGSLRLSCAASGFTFSYYALHWVRQAPGKGLEYVSAISGNGGSTYYADSVKGRFTISRDKSMSTVYLQVGSLRAEDMAVYYCARSYASSSDYHYYYGMDVWGQGTTVTVSS VL: not shown | 9.57 | 14.6 | – | – | – | – | – | – | – | – | – | – | – | – | – | – | – |
| H4sH21079P (antibody, V domains shown) VH: EVQLVESGGGLVKPGGSLRLSCAASGFTFSNAWMSWVRQAPGKGLEWVGRIKTRADGGTTDYAAPVKGRFTISRDDSKNTLYLQLNSLKTEDTAVYYCTSHNWNYEDFDYWGQGTLVTVSS VL: DIQMTQSPSSLSASVGDRVTITCRASQSISNYLNWYQQKPGKAPKLLIYAASSLQSGVPSRFSGSGSGTDFTLTISSLQPEEFATYYCQQSYSIPYTFGQGTKLEIK | 290 | 1.1 | 1.1 | 0.0109 | 37400 | – | – | – | – | – | – | – | – | – | – | – | – |
